Test results from US12643935B2, “PD-L1 binding peptides” (UNIVERSITY OF SOUTHERN CALIFORNIA, priority 2020, dated 2026).
Where no end group is shown, it is not given here.

Molecular target: hPD-L1 (Homo sapiens, UniProt Q9NZQ7)
Assay: Radiolabeled [35S] peptide binding assay on immobilized hPD-L1
Set-up: designed from A18 to T239 with a methionine added to the N-terminus; hexahistidine tag (C); made in house
Settings: [35S]-labeled variants, n=3
Procedure: [^35S]-labeled peptides were translated as described above by including 2 μCi labeled methionine (Perkin Elmer) per 10 pmol of template in the translation reaction. Each peptide was tested with a […] (for X9-library derived peptides) (SEQ ID NO: 11) or a […] (for X17-library derived peptides) (SEQ ID NO: 12) C-terminal sequence. […] The supernatant was removed and was counted. The beads were subsequently washed three times with 1 mL of blocking buffer and the washes were also counted. Finally, the beads were resuspended in 1 mL of blocking buffer and were counted separately. The ratio of the counts remaining on the beads to the total counts added to the binding reaction (the sum of the counts for supernatant, washes, and beads) was calculated to determine the percent bound.

Row | Substance | hPD-L1 binding of SPAM alanine mutant normalized to SPAM
1 | W13A: SPAM variant, alanine substituted at position 13 (MPIFLDHILNKFAILHYAGSGSSGHHHHHHSS) [Peptide W13A] | completely abolished hPD-L1 binding
2 | L9A: SPAM variant, alanine substituted at position 9 (MPIFLDHIANKFWILHYAGSGSSGHHHHHHSS) [Peptide L9A] | little or no significant influence
3 | Y18A: SPAM variant, alanine substituted for tyrosine (position 17 of SPAM) (MPIFLDHILNKFWILHAAGSGSSGHHHHHHSS) [Peptide Y18A] | decreased levels of hPD-L1 binding
4 | H16A: SPAM variant, alanine substituted at position 16 (MPIFLDHILNKFWILAYAGSGSSGHHHHHHSS) [Peptide H16A] | completely abolished hPD-L1 binding
5 | K11A: SPAM variant, alanine substituted at position 11 (MPIFLDHILNAFWILHYAGSGSSGHHHHHHSS) [Peptide K11A] | completely abolished hPD-L1 binding
6 | 13A: SPAM variant, alanine substituted at position 3 (MPAFLDHILNKFWILHYAGSGSSGHHHHHHSS) [Peptide 13A] | little or no significant influence
7 | H7A: SPAM variant, alanine substituted at position 7 (MPIFLDAILNKFWILHYAGSGSSGHHHHHHSS) [Peptide H7A] | completely abolished hPD-L1 binding
8 | N10A: SPAM variant, alanine substituted at position 10 (MPIFLDHILAKFWILHYAGSGSSGHHHHHHSS) [Peptide N10A] | completely abolished hPD-L1 binding
9 | A18: SPAM variant, glycine substituted for alanine at position 18 (MPIFLDHILNKFWILHYGGSGSSGHHHHHHSS; not fully specified) [Peptide A18] | completely abolished hPD-L1 binding
10 | D6A: SPAM variant, alanine substituted at position 6 (MPIFLAHILNKFWILHYAGSGSSGHHHHHHSS) [Peptide D6A] | completely abolished hPD-L1 binding
11 | L5A: SPAM variant, alanine substituted at position 5 (MPIFADHILNKFWILHYAGSGSSGHHHHHHSS) [Peptide L5A] | little or no significant influence
12 | 114A: SPAM variant, alanine substituted at position 14 (MPIFLDHILNKFWALHYAGSGSSGHHHHHHSS) [Peptide 114A] | completely abolished hPD-L1 binding
13 | 18A: SPAM variant, alanine substituted at position 8 (MPIFLDHALNKFWILHYAGSGSSGHHHHHHSS) [Peptide 18A] | little or no significant influence
14 | P2A: SPAM variant, alanine substituted at position 2 (MAIFLDHILNKFWILHYAGSGSSGHHHHHHSS) [Peptide P2A] | decreased levels of hPD-L1 binding
15 | F12A: SPAM variant, alanine substituted at position 12 (MPIFLDHILNKAWILHYAGSGSSGHHHHHHSS) [Peptide F12A] | completely abolished hPD-L1 binding
16 | L15A: SPAM variant, alanine substituted at position 15 (MPIFLDHILNKFWIAHYAGSGSSGHHHHHHSS) [Peptide L15A] | completely abolished hPD-L1 binding
17 | F4A: SPAM variant, alanine substituted at position 4 (MPIALDHILNKFWILHYAGSGSSGHHHHHHSS) [Peptide F4A] | little or no significant influence

Same assay, conditions: streptavidin agarose beads loaded with 1.1 μM hPD-L1 (1,100 pmol)

Row | Substance | binding to heavily loaded hPD-L1 beads
18 | MRIFAVFIFMTYWHLLNA [hPD-L1 signal peptide] | some binding
